For 1 substance, N FRET results are on record in paper PMC2475692.

Assay [1] deals with YFP-EF-preIQ-IQ (CaV1.3 α1 C-terminal fragment, amino acids 1453–1623) (human) (UniProt Q01668). The assay is described as follows: FRET or BRET.
For assay [2], the target named is YFP-EF-preIQ-IQ-PCRD (CaV1.3 α1 C-terminal fragment, amino acids 1453–1664) (human). The assay is described as follows: FRET or BRET.
Sequence of YFP-EF-preIQ-IQ-PCRD (CaV1.3 α1 C-terminal fragment, amino acids 1453–1664) (human) (Q01668 1453-1664): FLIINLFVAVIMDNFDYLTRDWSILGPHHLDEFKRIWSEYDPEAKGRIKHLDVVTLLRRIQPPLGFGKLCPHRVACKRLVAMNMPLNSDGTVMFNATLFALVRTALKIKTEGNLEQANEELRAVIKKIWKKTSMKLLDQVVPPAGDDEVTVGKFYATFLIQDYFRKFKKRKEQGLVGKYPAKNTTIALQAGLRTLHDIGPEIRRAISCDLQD

Sequence of YFP-EF-preIQ-IQ (CaV1.3 α1 C-terminal fragment, amino acids 1453–1623) (human) (Q01668 1468-1638): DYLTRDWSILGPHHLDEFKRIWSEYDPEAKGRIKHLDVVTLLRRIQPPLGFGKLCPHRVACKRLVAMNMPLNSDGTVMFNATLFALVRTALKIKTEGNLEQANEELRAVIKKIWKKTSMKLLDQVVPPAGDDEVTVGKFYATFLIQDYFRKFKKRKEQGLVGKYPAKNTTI

“CFP-labeled calmodulin (from UniProt P0DP23 1-149) (natural protein)”: the N FRET is 0.185 in assay [1] and 0.235 in assay [2].
